For assay [1], the target named is T1, human EGFR (human, UniProt P00533 25-1210). Kind of assay: flow cytometry competition on A431 cells; competitor: 10 nM biotinylated TGFα. Background: In flow cytometry, cells or beads pass a laser one at a time.
Assay [2] addresses T1, human EGFR. Kind of assay: flow cytometry competition on MDA-MB468 cells; competed: 0.2 nM biotinylated cetuximab; streptavidin-Alexa 488 detection.
Experimental: (§1) To distinguish binding epitopes of anti-EGFR antibodies, antibody binding competition assays were done using flow cytometry. […] In brief, the biotinylated antibody was pre-mixed with varying concentration of ‘competing’ antibodies. The antibody mixture was then incubated with cells on ice for 2h. […] After washing, the cells were fixed and analyzed in FACScalibur. The geometric mean fluorescence intensity was plotted against antibody concentration in semi-log plot and normalized so that 100% represents the maximal binding of the biotinylated antibody in absence of other antibody and 0% represents the background staining in absence of the biotinylated antibody.
Assay [3] deals with T1, human EGFR. Kind of assay: flow cytometry competition on MDA-MB468 cells; competed: 0.3 nM biotinylated 528 antibody; streptavidin-Alexa 488 detection.
Experimental: as §1
For assay [4], the target named is T2, huEGFRdIII-Fc (human; murine, UniProt P00533 334-525).
T2 construct: range 310-501; Residue numbers count on the mature receptor, not on the precursor; also called human EGFR domain III; not shown: murine IgG2A hinge, CH2, and CH3 region
Put plainly: ELISA on the EGFR ECD-Fc construct (A450). For orientation: An ELISA detects its analyte on a solid surface through an enzyme-linked reagent.

The target in assay [5] is T3, huEGFR-Fc (human; murine, UniProt P00533 25-645).
T3 construct: extracellular domain; also called human EGFR ECD Fc fusion; wild type human EGFR; not shown: murine IgG2A hinge, CH2, and CH3 region (pmuFc2ANL vector)
Put plainly: ELISA on the EGFR ECD-Fc construct (A450).

Assay [6] has as its target T4, chEGFRdIII-Fc (murine; human, UniProt Q01279 334-483; P00533 484-505; Q01279 506-525).
T4 construct: range 310-459;range 460-481;range 482-501; the split into three pieces follows from that; also called human/murine EGFR chimera; not shown: murine IgG2A hinge, CH2, and CH3 region
Kind of assay: ELISA on the EGFR ECD-Fc construct (A450).

Assay [7] concerns the target T1, human EGFR. Put plainly: cell-based or functional assay.
For assay [8], the target named is T1, human EGFR. Kind of assay: cell-based or functional assay. The source holds these as a separate data set.
Assay [9] has as its target T1, human EGFR. Kind of assay: cell-based or functional assay. This is another data set of the same source.
For assay [10], the target named is T1, human EGFR. Put plainly: flow cytometry competition on A431 cells; competitor: 1.8 nM biotinylated EGF.
Experimental: To examine if the EGFR antibodies inhibit the ligand binding to the EGFR, the binding of biotinylated EGFR ligand to the A431 cells was measured by flow cytometry in the presence of anti-EGFR antibodies. […] Prior to competition assay, the binding curve of the biotinylated ligands was established. […] Cells were then washed twice with FACS buffer and incubated with streptavidin-APC conjugate (Jackson Immunoresearch) for 15 min on ice. Cells were washed twice with FACS buffer and analyzed in FACS Calibur (BD Bioscience) using FlowJo program (Tree Star). The geometric mean fluorescence intensities were plotted against the antibody concentration in a semi-log plot.
Assay [11] has as its target T2, huEGFRdIII-Fc. Kind of assay: ELISA on the EGFR ECD-Fc construct (A450). The source holds these as a separate data set.
The target in assay [12] is T3, huEGFR-Fc. Kind of assay: ELISA on the EGFR ECD-Fc construct (A450). The source holds these as a separate data set.
For assay [13], the target named is T4, chEGFRdIII-Fc. Put plainly: ELISA on the EGFR ECD-Fc construct (A450). This is another data set of the same source.
Assay [14] has as its target T5, muEGFRdIII-Fc (murine, UniProt Q01279 334-525).
T5 construct: range 310-501; Residue numbers count on the mature receptor, not on the precursor; also called murine EGFR domain III; not shown: murine IgG2A hinge, CH2, and CH3 region
Kind of assay: ELISA on the EGFR ECD-Fc construct (A450).

Assay [15] deals with T2, huEGFRdIII-Fc. Put plainly: ELISA on the EGFR ECD-Fc construct (A450). This is another data set of the same source.
For assay [16], the target named is T3, huEGFR-Fc. Put plainly: ELISA on the EGFR ECD-Fc construct (A450). The source holds these as a separate data set.
Assay [17] concerns the target T4, chEGFRdIII-Fc. Put plainly: ELISA on the EGFR ECD-Fc construct (A450). This is another data set of the same source.
Assay [18] concerns the target T5, muEGFRdIII-Fc. Put plainly: ELISA on the EGFR ECD-Fc construct (A450). The source holds these as a separate data set.

Where a chain is given by its changes, count along the chain named. Like-named read-outs stand apart in the source and are kept apart here.

For TGFα (ligand), in the assay with human EGFR [1], the EC50 (usually the concentration needed to bring the measured effect to its halfway point) turned out to be 1.34 nM.

B1: muEGFR-7 antibody (antibody, V domains shown)
VH: QVQLQQSGAELARPGASVKLSCKASGYTFTSYWMQWVKQRPGQGLECIGTIYPGDGDTTYTQKFKGKATLTADKSSSTAYMQLSSLASEDSAVYYCARYDAPGYAMDYWGQGTSVTVSS
VL: DIQMTQSPSSLSASLGGKVTITCKASQDINNYLAWYQHKPGKGPRLLIHYTSTLHPGIPSRFSGSGSGRDYSFSISNLEPEDIATYYCLQYDNLLYTFGGGTKLEIKR
notes: Murine hybridoma antibody (ATCC PTA-11332)
Regarding B1, the “IC50 (read off the curve)” value with human EGFR [2] and with human EGFR [3] was about 2 nM throughout. The concentration for a half-maximal effect (EC50) in the assay with huEGFRdIII-Fc [4] turned out to be 0.043 nM; with huEGFR-Fc [5] it was 0.0328 nM; in the assay with chEGFRdIII-Fc [6], 0.294 nM. The “EC50 (nM), anti-proliferative activity in NCI-H292 cells” value with human EGFR [7] came to 0.21 nM; in the assay with human EGFR [9], 0.4 nM. Further, in the assay with human EGFR [8], the “EC50 (nM), anti-proliferative activity in HCC827 cells” value (from here on “EC50 (nM) … in HCC827 cells”) was determined as 0.03 nM. Also, the “Maximal inhibition (%), HCC827 cells” value with human EGFR [8] is 72%.

B2: muEGFR-12 antibody (antibody, V domains shown)
VH: B1 VH with A9T, T59R, T61I
VL: DVQITQSPSYLAASPGETITINCRASKSISKYLAWYQEKPGKTNKLLIYSGSTLQSGIPSRFSGSGSGTDFTLTISSLEPEDFAMYYCQQHNEYPWTFGGGTKLEIK
notes: Murine hybridoma antibody (ATCC PTA-11333)
Take B2: the 50% effective concentration (EC50) in the assay with human EGFR [10] worked out at 2.93 nM; with human EGFR [1], 1.34 nM; with huEGFRdIII-Fc [11], 0.0572 nM; with huEGFR-Fc [12] it was 0.0485 nM; with chEGFRdIII-Fc [13], 1.24 nM. The “IC50 (read off the curve)” value with human EGFR [2] and with human EGFR [3] was about 2 nM each time. Further, the “EC50 (nM) … in HCC827 cells” value in the assay with human EGFR [8] is 0.7 nM. In addition, the “Maximal inhibition (%), HCC827 cells” value with human EGFR [8] was found to be 63%. The binding result in the assay with muEGFRdIII-Fc [14] is on record as “no binding (tested: 10^-7 M)”.

B3: muEGFR-6 antibody (antibody, V domains shown)
VH: B1 VH with T50A, I51L, T58A, T59R, K74R, S118A
VL: B1 VL with L33I
notes: Murine hybridoma antibody (ATCC PTA-11331)
Regarding B3, the EC50 was determined as 0.0694 nM in the assay with huEGFRdIII-Fc [15]; 0.0484 nM in the assay with huEGFR-Fc [16]; 0.867 nM with chEGFRdIII-Fc [17]; 2.55 nM in the assay with human EGFR [10]; 1.18 nM in the assay with human EGFR [1]. In addition, the binding result with muEGFRdIII-Fc [18] is on record as “no binding (tested: 10^-7 M)”. Further, the “IC50 (read off the curve)” value in the assay with human EGFR [2] and in the assay with human EGFR [3] was about 2 nM throughout. The “EC50 (nM), anti-proliferative activity in NCI-H292 cells” value with human EGFR [7] was found to be 2.59 nM; with human EGFR [9], 5.6 nM. The “EC50 (nM) … in HCC827 cells” value in the assay with human EGFR [8] was 0.3 nM. In addition, the “Maximal inhibition (%), HCC827 cells” value with human EGFR [8] stood at 72%.

These data come from patent US20140099308A1 (IMMUNOGEN, published 2014).
